This assay deals with mutant form of α-Gal A expressed in HEK-293 cells. Put plainly: HEK assay (GLP HEK / Migalastat Amenability Assay): α-Gal A activity in lysates of transiently transfected HEK-293 cells incubated with or without 10 μM migalastat. Format: cell-based, human. Conditions: for Absolute increase (% WT) / Relative increase: 10 μM migalastat versus baseline; for Baseline α-Gal A activity (% WT): absence of migalastat; for Baseline α-Gal A activity (% WT) / 10 μM migalastat α-Gal A activity (% WT): percentage of baseline wild-type α-Gal A activity; for Baseline α-Gal A activity (% WT) / Baseline α-Gal A activity / 10 μM migalastat α-Gal A activity / 10 μM migalastat α-Gal A activity (% WT): mean ± SEM; for Baseline α-Gal A activity / 10 μM migalastat α-Gal A activity: lysates of HEK-293 cells transiently transfected with the mutant form; for Baseline α-Gal A activity: incubated 5 days in absence of migalastat; for 10 μM migalastat α-Gal A activity: incubated 5 days with 10 μM migalastat; for 10 μM migalastat α-Gal A activity (% WT): with 10 μM migalastat, 5 days. The procedure, abridged: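 Activity reported as 4-MU released (nmol/mg/hr), mean±SEM, from lysates of transiently transfected HEK-293 cells expressing mutant α-Gal A, cultured with or without 10 μM migalastat.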

This note sets out measurements from patent US11833164B2, “Methods of treating Fabry disease in patients having a mutation in the GLA gene” (Amicus Therapeutics, Inc., priority 2019, dated 2023).

Residue numbers refer to the chain shown, from its start. Names and notes keep the numbering of the source.

B1: Q330E (protein)
chain: MQLRNPELHLGCALALRFLALVSWDIPGARALDNGLARTPTMGWLHWERFMCNLDCQEEPDSCISEKLFMEMAELMVSEGWKDAGYEYLCIDDCWMAPQRDSEGRLQADPQRFPHGIRQLANYVHSKGLKLGIYADVGNKTCAGFPGSFGYYDIDAQTFADWGVDLLKFDGCYCDSLENLADGYKHMSLALNRTGRSIVYSCEWPLYMWPFQKPNYTEIRQYCNHWRNFADIDDSWKSIKSILDWTSFNQERIVDVAGPGGWNDPDMLVIGNFGLSWNQQVTQMALWAIMAAPLFMSNDLRHISPQAKALLQDKDVIAINQDPLGKQGYELRQGDNFEVWERPLSGLAWAVAMINRQEIGGPRSYTIAVASLGKGVACNPACFITQLLPVKRKLGFYEWTSRLRSHINPTGTVLLQLENTMQMSLKDLL
On to B1, for which the “Absolute increase (% WT)” value was found to be 19.9 % WT, the Relative increase was determined as 1.7, the “Baseline α-Gal A activity (% WT)” value was 26.4 ± 1.5 % WT and the “Baseline α-Gal A activity” value was 7500 ± 345 nmol/mg/h. Besides, the “10 μM migalastat α-Gal A activity” value was determined as 13086 ± 589 nmol/mg/h and the “10 μM migalastat α-Gal A activity (% WT)” value came out at 46.4 ± 2.6 % WT.

B2: L331V (protein)
chain: B1 chain with E330Q, L331V
For the molecule B2, the “Absolute increase (% WT)” value is 28.0 % WT, the Relative increase stood at 1.3, the “Baseline α-Gal A activity (% WT)” value was 89.4 ± 4.5 % WT and the “Baseline α-Gal A activity” value came to 25163 ± 801 nmol/mg/h. Besides, the “10 μM migalastat α-Gal A activity” value came out at 33050 ± 967 nmol/mg/h and the “10 μM migalastat α-Gal A activity (% WT)” value worked out at 117.4 ± 5.6 % WT.

B3: R332G (protein)
chain: B1 chain with E330Q, R332G
As for B3, the “Absolute increase (% WT)” value was 23.4 % WT, the Relative increase amounted to 1.3, the “Baseline α-Gal A activity (% WT)” value stood at 78.8 ± 2.7 % WT and the “Baseline α-Gal A activity” value amounted to 33043 ± 1431 nmol/mg/h. For the same molecule, the “10 μM migalastat α-Gal A activity” value turned out to be 42737 ± 1959 nmol/mg/h and the “10 μM migalastat α-Gal A activity (% WT)” value came to 102.3 ± 4.6 % WT.

B4: Q333P (protein)
chain: B1 chain with E330Q, Q333P
For B4, the “Absolute increase (% WT)” value amounted to 31.0 % WT, the Relative increase is listed as 1.9, the “Baseline α-Gal A activity (% WT)” value was determined as 30.3 ± 1.7 % WT and the “Baseline α-Gal A activity” value is 11819 ± 1039 nmol/mg/h. Besides, the “10 μM migalastat α-Gal A activity” value came out at 22746 ± 1255 nmol/mg/h and the “10 μM migalastat α-Gal A activity (% WT)” value came to 61.3 ± 3.9 % WT.

B5: D335A (protein)
chain: B1 chain with E330Q, D335A
B5: the “Absolute increase (% WT)” value was determined as 27.7 % WT, the Relative increase stood at 1.6, the “Baseline α-Gal A activity (% WT)” value came to 57.9 ± 3 % WT and the “Baseline α-Gal A activity” value stood at 21055 ± 1662 nmol/mg/h. Moreover, the “10 μM migalastat α-Gal A activity” value amounted to 33829 ± 4641 nmol/mg/h and the “10 μM migalastat α-Gal A activity (% WT)” value is on record as 85.6 ± 6.9 % WT.

B6: R332I (protein)
chain: B1 chain with E330Q, R332I
For the molecule B6, the “Absolute increase (% WT)” value was 43.2 % WT, the Relative increase came to 1.7, the “Baseline α-Gal A activity (% WT)” value is recorded as 63.3 ± 4.5 % WT and the “Baseline α-Gal A activity” value is 24614 ± 1678 nmol/mg/h. For the same molecule, the “10 μM migalastat α-Gal A activity” value is 41550 ± 2461 nmol/mg/h and the “10 μM migalastat α-Gal A activity (% WT)” value was determined as 106.6 ± 6.4 % WT.

B7: R332T (protein)
chain: B1 chain with E330Q, R332T
B7: the “Absolute increase (% WT)” value came to 36.2 % WT, the Relative increase stood at 1.5, the “Baseline α-Gal A activity (% WT)” value is reported as 73.3 ± 2.9 % WT and the “Baseline α-Gal A activity” value stood at 26141 ± 1254 nmol/mg/h. The “10 μM migalastat α-Gal A activity” value is 39363 ± 2176 nmol/mg/h and the “10 μM migalastat α-Gal A activity (% WT)” value is listed as 109.5 ± 4.7 % WT.

B8: L331H (protein)
chain: B1 chain with E330Q, L331H
With B8, the “Absolute increase (% WT)” value is on record as 25.9 % WT, the Relative increase turned out to be 1.6, the “Baseline α-Gal A activity (% WT)” value was determined as 42 ± 3.2 % WT and the “Baseline α-Gal A activity” value stood at 11743 ± 634 nmol/mg/h. Moreover, the “10 μM migalastat α-Gal A activity” value stood at 19003 ± 791 nmol/mg/h and the “10 μM migalastat α-Gal A activity (% WT)” value is given as 67.9 ± 4.3 % WT.

B9: R332S (protein)
chain: B1 chain with E330Q, R332S
On to B9, for which the “Absolute increase (% WT)” value is reported as 20.5 % WT, the Relative increase was 1.2, the “Baseline α-Gal A activity (% WT)” value was 87.6 ± 6.6 % WT and the “Baseline α-Gal A activity” value amounted to 33936 ± 2528 nmol/mg/h. For the same molecule, the “10 μM migalastat α-Gal A activity” value is 41700 ± 2778 nmol/mg/h and the “10 μM migalastat α-Gal A activity (% WT)” value stood at 108.1 ± 8.4 % WT.

B10: Q333L (protein)
chain: B1 chain with E330Q, Q333L
On to B10, for which the “Absolute increase (% WT)” value stood at 24.7 % WT, the Relative increase came to 1.3, the “Baseline α-Gal A activity (% WT)” value turned out to be 68.6 ± 2.9 % WT and the “Baseline α-Gal A activity” value was 25450 ± 2094 nmol/mg/h. In addition, the “10 μM migalastat α-Gal A activity” value came to 33727 ± 1965 nmol/mg/h and the “10 μM migalastat α-Gal A activity (% WT)” value came out at 93.3 ± 4.1 % WT.

B11: L331P (protein)
chain: B1 chain with E330Q, L331P
For the molecule B11, the “Absolute increase (% WT)” value is listed as 3.1 % WT, the Relative increase worked out at 6.5, the “Baseline α-Gal A activity (% WT)” value was determined as 0.6 ± 0.1 % WT and the “Baseline α-Gal A activity” value stood at 157 ± 20 nmol/mg/h. Further, the “10 μM migalastat α-Gal A activity” value turned out to be 1029 ± 32 nmol/mg/h and the “10 μM migalastat α-Gal A activity (% WT)” value stood at 3.7 ± 0.2 % WT.

B12: Q333E (protein)
chain: B1 chain with E330Q, Q333E
For B12, the “Absolute increase (% WT)” value is given as 23.5 % WT, the Relative increase came to 1.3, the “Baseline α-Gal A activity (% WT)” value stood at 77.8 ± 5.3 % WT and the “Baseline α-Gal A activity” value is 30291 ± 2094 nmol/mg/h. Moreover, the “10 μM migalastat α-Gal A activity” value stood at 38709 ± 2428 nmol/mg/h and the “10 μM migalastat α-Gal A activity (% WT)” value was 101.3 ± 7.6 % WT.

B13: Q330K (protein)
chain: B1 chain with E330K
As to B13, the “Absolute increase (% WT)” value is recorded as 21.1 % WT, the Relative increase is listed as 1.3, the “Baseline α-Gal A activity (% WT)” value is 71 ± 2.7 % WT and the “Baseline α-Gal A activity” value is 20289 ± 720 nmol/mg/h. Besides, the “10 μM migalastat α-Gal A activity” value is 26149 ± 1074 nmol/mg/h and the “10 μM migalastat α-Gal A activity (% WT)” value worked out at 92.1 ± 4.2 % WT.

B14: D335E (protein)
chain: B1 chain with E330Q, D335E
With B14, the “Absolute increase (% WT)” value was determined as 17.7 % WT, the Relative increase amounted to 1.3, the “Baseline α-Gal A activity (% WT)” value was 68.7 ± 4.8 % WT and the “Baseline α-Gal A activity” value stood at 30532 ± 1962 nmol/mg/h. The “10 μM migalastat α-Gal A activity” value was determined as 39124 ± 2722 nmol/mg/h and the “10 μM migalastat α-Gal A activity (% WT)” value was 86.5 ± 4.5 % WT.

B15: G334V (protein)
chain: B1 chain with E330Q, G334V
B15: the “Absolute increase (% WT)” value was determined as 13.7 % WT, the Relative increase was 1.2, the “Baseline α-Gal A activity (% WT)” value is given as 68.4 ± 3.2 % WT and the “Baseline α-Gal A activity” value is 31991 ± 2390 nmol/mg/h. For the same molecule, the “10 μM migalastat α-Gal A activity” value is 38301 ± 2744 nmol/mg/h and the “10 μM migalastat α-Gal A activity (% WT)” value is on record as 82.1 ± 3.8 % WT.

B16: Q330H (protein)
chain: B1 chain with E330H
Take B16: the “Absolute increase (% WT)” value stood at 40.8 % WT, the Relative increase turned out to be 2.2, the “Baseline α-Gal A activity (% WT)” value is on record as 33.1 ± 2.8 % WT and the “Baseline α-Gal A activity” value worked out at 9296 ± 649 nmol/mg/h. Further, the “10 μM migalastat α-Gal A activity” value is 20752 ± 592 nmol/mg/h and the “10 μM migalastat α-Gal A activity (% WT)” value is given as 73.9 ± 3.6 % WT.

B17: L331R (protein)
chain: B1 chain with E330Q, L331R
B17: the “Absolute increase (% WT)” value is 23.3 % WT, the Relative increase turned out to be 1.6, the “Baseline α-Gal A activity (% WT)” value was 33.2 ± 1.5 % WT and the “Baseline α-Gal A activity” value is 9725 ± 634 nmol/mg/h. Also, the “10 μM migalastat α-Gal A activity” value stood at 15841 ± 639 nmol/mg/h and the “10 μM migalastat α-Gal A activity (% WT)” value was found to be 56.5 ± 3.2 % WT.

B18: G334R (protein)
chain: B1 chain with E330Q, G334R
Turning to B18, the “Absolute increase (% WT)” value is reported as 17.5 % WT, the Relative increase turned out to be 1.2, the “Baseline α-Gal A activity (% WT)” value was found to be 58.9 ± 4.6 % WT and the “Baseline α-Gal A activity” value stood at 25886 ± 3237 nmol/mg/h. Also, the “10 μM migalastat α-Gal A activity” value came out at 31174 ± 2016 nmol/mg/h and the “10 μM migalastat α-Gal A activity (% WT)” value amounted to 76.4 ± 2.7 % WT.
